In patent US20200199241A1 (Chugai, published 2020):
Positions count from the first letter of the chain named. Names may count otherwise.

T1: human FcγRIIa(R) (human, UniProt P12318 36-217)
T1 construct: also called FcgRIIaR; hFcgRIIa(R)
T1 chain: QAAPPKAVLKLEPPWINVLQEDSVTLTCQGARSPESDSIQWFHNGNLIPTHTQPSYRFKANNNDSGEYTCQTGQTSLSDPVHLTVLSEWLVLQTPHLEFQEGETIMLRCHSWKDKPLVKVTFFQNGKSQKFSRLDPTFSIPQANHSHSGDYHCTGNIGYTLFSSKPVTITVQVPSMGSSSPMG

T2: human FcγRIIa(H) (human, UniProt P12318 36-217)
T2 construct: also called FcgRIIaH; hFcgRIIa(H)
T2 sequence: T1 chain with R133H

T3: human FcγRIIb (human, UniProt P31994 43-217, limits assumed)
T3 construct: also called FcgRIIb; hFcgRIIb
T3 sequence: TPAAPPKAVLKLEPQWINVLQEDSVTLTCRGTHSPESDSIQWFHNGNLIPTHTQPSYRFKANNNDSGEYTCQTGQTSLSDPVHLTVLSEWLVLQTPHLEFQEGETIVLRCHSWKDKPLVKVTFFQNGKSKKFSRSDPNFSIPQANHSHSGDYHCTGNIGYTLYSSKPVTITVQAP

B1: GpH7-B3 L328K/GpL16-k0 (antibody, human IgG1)
heavy: not shown
light: DIVMTQSPLSLPVTPGEPASISCQASESLVHSNRNTYLHWYLQKPGQSPQLLIYKVSNRFSGVPDRFSGSGSGTDFTLKISRVEAEDVGVYYCSQNTHVPPTFGQGTKVEIE
notes: B3 variant; copies: 2 + 2
B2: GpH7-B3 N325R/GpL16-k0 (antibody, human IgG1)
heavy: not shown
light: B1 light
notes: B3 variant; copies: 2 + 2
B3: GpH7-B3 P329R/GpL16-k0 (antibody, human IgG1)
heavy: not shown
light: B1 light
notes: B3 variant; copies: 2 + 2
B4: GpH7-B3 P329Q/GpL16-k0 (antibody, human IgG1)
heavy: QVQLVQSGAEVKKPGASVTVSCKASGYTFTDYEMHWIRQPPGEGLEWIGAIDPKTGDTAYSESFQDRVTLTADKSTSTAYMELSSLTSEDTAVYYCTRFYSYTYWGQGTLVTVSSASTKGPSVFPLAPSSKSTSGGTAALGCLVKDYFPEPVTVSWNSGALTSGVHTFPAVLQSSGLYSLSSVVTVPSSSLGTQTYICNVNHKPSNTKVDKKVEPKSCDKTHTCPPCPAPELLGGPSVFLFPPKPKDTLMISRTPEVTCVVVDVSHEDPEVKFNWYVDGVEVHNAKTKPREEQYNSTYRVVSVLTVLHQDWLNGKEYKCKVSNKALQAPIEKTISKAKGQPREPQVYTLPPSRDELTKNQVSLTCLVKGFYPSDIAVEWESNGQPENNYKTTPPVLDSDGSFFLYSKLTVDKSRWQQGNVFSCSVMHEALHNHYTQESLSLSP
light: B1 light
notes: B3 variant; copies: 2 + 2
B5: GpH7-B3 N325Y/GpL16-k0 (antibody, human IgG1)
heavy: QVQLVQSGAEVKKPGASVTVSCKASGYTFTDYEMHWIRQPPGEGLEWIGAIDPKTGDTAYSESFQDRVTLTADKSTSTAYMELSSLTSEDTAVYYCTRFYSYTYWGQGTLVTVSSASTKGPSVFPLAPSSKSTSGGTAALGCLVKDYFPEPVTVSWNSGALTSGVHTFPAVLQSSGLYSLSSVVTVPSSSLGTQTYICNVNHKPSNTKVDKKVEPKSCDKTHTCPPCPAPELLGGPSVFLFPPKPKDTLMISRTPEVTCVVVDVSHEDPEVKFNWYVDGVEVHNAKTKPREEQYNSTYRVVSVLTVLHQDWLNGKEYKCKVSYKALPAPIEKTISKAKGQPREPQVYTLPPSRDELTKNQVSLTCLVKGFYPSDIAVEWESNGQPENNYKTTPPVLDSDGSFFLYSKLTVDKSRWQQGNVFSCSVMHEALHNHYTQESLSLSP
light: B1 light
notes: B3 variant; copies: 2 + 2
B6: GpH7-B3 P329N/GpL16-k0 (antibody, human IgG1)
heavy: not shown
light: B1 light
notes: B3 variant; copies: 2 + 2
B7: GpH7-B3 P329F/GpL16-k0 (antibody, human IgG1)
heavy: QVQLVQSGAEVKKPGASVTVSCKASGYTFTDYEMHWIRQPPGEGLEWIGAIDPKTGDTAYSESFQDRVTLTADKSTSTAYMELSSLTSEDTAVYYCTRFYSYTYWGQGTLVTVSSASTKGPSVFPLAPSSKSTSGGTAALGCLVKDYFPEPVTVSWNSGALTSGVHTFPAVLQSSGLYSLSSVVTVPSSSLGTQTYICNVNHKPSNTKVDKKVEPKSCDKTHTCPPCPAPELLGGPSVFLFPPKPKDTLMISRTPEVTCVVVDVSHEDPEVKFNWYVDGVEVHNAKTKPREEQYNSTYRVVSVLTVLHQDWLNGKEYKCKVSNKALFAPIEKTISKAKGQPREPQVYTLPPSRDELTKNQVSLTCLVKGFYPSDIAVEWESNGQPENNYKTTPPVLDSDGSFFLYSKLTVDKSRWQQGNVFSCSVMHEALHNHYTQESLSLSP
light: B1 light
notes: B3 variant; copies: 2 + 2
B8: GpH7-B3 N325G/GpL16-k0 (antibody, human IgG1)
heavy: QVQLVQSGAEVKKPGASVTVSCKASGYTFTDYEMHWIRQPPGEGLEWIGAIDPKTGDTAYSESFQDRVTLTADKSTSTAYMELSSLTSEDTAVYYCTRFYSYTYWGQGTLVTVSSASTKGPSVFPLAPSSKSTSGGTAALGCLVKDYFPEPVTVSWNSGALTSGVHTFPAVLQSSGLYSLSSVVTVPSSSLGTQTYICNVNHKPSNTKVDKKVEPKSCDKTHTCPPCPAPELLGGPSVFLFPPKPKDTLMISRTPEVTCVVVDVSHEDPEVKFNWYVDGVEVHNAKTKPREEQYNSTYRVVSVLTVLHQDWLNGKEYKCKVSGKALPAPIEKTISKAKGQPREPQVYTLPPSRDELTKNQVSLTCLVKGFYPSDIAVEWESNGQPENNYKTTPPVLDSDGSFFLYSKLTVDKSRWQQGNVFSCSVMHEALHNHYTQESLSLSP
light: B1 light
notes: B3 variant; copies: 2 + 2
B9: GpH7-B3 P329H/GpL16-k0 (antibody, human IgG1)
heavy: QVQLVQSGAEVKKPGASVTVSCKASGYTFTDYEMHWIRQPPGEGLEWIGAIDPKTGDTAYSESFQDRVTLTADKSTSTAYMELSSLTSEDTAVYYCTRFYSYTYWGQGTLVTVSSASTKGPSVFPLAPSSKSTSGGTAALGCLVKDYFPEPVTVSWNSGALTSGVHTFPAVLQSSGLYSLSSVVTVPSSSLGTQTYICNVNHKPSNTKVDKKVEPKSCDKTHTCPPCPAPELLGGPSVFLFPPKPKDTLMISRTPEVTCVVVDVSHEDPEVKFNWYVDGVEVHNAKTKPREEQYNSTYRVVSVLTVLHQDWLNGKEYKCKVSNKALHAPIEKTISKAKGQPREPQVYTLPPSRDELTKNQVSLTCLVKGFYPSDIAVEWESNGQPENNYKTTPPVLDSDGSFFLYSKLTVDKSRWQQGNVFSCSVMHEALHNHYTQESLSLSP
light: B1 light
notes: B3 variant; copies: 2 + 2
B10: GpH7-B3 N325W/GpL16-k0 (antibody, human IgG1)
heavy: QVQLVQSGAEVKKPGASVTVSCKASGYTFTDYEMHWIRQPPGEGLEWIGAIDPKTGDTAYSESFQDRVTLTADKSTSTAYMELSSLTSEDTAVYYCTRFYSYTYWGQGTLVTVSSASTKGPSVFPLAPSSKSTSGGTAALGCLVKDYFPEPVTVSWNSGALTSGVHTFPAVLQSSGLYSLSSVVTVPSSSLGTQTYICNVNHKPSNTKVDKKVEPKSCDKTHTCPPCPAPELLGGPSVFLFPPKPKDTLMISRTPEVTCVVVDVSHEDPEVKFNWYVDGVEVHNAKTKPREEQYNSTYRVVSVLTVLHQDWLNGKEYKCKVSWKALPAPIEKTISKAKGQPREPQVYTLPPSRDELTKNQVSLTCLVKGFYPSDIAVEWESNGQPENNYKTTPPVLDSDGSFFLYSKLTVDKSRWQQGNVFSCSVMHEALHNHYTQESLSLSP
light: B1 light
notes: B3 variant; copies: 2 + 2
B11: GpH7-B3 P329I/GpL16-k0 (antibody, human IgG1)
heavy: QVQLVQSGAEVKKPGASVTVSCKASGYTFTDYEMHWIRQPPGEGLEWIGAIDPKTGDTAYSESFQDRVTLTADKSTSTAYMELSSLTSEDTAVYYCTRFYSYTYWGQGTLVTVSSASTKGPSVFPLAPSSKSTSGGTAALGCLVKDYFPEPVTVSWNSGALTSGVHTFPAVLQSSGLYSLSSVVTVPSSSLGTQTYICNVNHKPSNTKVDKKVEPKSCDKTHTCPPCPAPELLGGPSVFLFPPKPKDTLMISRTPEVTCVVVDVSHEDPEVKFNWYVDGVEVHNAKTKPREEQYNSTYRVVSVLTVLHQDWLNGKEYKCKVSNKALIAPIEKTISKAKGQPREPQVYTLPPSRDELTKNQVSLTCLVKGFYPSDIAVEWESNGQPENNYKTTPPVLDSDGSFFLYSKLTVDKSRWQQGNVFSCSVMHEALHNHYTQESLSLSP
light: B1 light
notes: B3 variant; copies: 2 + 2
B12: GpH7-B3 P329D/GpL16-k0 (antibody, human IgG1)
heavy: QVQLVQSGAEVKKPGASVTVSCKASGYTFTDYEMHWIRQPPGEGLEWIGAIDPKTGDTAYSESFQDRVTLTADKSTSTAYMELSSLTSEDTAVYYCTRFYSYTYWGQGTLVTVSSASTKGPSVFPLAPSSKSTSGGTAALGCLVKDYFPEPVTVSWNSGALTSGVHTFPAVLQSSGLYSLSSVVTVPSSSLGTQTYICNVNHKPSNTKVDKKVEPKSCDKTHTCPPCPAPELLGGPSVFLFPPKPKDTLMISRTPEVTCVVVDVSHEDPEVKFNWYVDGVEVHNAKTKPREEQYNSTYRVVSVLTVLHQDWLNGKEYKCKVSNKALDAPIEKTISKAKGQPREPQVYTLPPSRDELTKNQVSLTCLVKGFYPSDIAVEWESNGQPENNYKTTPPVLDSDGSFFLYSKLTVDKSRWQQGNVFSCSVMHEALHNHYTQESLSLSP
light: B1 light
notes: B3 variant; copies: 2 + 2
B13: GpH7-B3 P271S/GpL16-k0 (antibody, human IgG1)
heavy: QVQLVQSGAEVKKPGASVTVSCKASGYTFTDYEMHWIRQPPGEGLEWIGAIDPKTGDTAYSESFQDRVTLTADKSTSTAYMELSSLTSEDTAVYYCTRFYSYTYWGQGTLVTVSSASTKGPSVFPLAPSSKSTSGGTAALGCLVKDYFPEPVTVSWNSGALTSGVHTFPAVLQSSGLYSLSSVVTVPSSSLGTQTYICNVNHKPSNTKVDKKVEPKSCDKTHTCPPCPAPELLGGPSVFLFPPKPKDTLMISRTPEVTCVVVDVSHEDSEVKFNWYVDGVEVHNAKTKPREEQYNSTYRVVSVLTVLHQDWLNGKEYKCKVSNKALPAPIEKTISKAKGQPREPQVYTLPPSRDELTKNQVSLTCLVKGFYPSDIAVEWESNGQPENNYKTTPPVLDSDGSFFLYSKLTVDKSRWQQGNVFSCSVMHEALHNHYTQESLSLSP
light: B1 light
notes: B3 variant; copies: 2 + 2
B14: GpH7-B3 N325F/GpL16-k0 (antibody, human IgG1)
heavy: not shown
light: B1 light
notes: B3 variant; copies: 2 + 2
B15: GpH7-B3 N325T/GpL16-k0 (antibody, human IgG1)
heavy: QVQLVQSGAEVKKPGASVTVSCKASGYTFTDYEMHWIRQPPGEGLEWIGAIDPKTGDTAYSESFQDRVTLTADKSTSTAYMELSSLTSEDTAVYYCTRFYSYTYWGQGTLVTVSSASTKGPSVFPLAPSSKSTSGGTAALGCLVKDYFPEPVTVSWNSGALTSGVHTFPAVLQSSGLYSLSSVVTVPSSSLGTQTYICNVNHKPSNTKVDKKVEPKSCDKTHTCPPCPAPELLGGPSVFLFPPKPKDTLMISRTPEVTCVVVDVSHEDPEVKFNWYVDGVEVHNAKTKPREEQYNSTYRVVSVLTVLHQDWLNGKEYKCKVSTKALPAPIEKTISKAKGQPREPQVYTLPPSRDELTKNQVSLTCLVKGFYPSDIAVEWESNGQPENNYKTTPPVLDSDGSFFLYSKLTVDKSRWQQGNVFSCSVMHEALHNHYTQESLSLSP
light: B1 light
notes: B3 variant; copies: 2 + 2
B16: GpH7-B3 P271T/GpL16-k0 (antibody, human IgG1)
heavy: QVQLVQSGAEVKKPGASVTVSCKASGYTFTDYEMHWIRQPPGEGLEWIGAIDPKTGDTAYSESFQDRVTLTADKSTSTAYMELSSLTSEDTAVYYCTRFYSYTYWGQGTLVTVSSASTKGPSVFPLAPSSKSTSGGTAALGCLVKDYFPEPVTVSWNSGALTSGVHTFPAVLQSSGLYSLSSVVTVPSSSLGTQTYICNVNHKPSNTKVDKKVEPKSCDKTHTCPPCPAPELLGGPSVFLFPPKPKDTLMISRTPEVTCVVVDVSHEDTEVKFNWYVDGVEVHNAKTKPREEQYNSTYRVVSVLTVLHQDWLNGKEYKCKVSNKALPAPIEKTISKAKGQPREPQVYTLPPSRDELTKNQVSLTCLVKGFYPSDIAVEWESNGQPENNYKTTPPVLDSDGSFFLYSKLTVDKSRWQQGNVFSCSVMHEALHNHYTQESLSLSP
light: B1 light
notes: B3 variant; copies: 2 + 2

Biological target: T1, human FcγRIIa(R)
Assay: SPR, captured antibody;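 note: antibody captured on a sensor chip, Fcγ receptor flowed over at 25 °C, receptor binding normalized to the captured antibody amount and expressed relative to the reference antibody ×100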

| relative binding activity | Binder |
| --- | --- |
| -17 % of GpH7-B3/GpL16-k0 | B1 |
| 0 % of GpH7-B3/GpL16-k0 | B2 |
| -2 % of GpH7-B3/GpL16-k0 | B3 |
| -1 % of GpH7-B3/GpL16-k0 | B4 |
| 42 % of GpH7-B3/GpL16-k0 | B5 |
| 4 % of GpH7-B3/GpL16-k0 | B6 |
| 1 % of GpH7-B3/GpL16-k0 | B7 |
| 26 % of GpH7-B3/GpL16-k0 | B8 |
| -1 % of GpH7-B3/GpL16-k0 | B9 |
| 55 % of GpH7-B3/GpL16-k0 | B10 |
| 22 % of GpH7-B3/GpL16-k0 | B11 |
| -1 % of GpH7-B3/GpL16-k0 | B12 |
| 83 % of GpH7-B3/GpL16-k0 | B13 |
| 65 % of GpH7-B3/GpL16-k0 | B14 |
| 59 % of GpH7-B3/GpL16-k0 | B15 |
| 73 % of GpH7-B3/GpL16-k0 | B16 |

biological target: T4, human FcγRIa (human, UniProt P12314 16-292, limits assumed); assay: SPR, captured antibody;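 note: antibody captured on a sensor chip, Fcγ receptor flowed over at 25 °C, receptor binding normalized to the captured antibody amount and expressed relative to the reference antibody ×100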
T4 construct: also called FcgRIa; hFcgRIa

| relative binding activity | Binder |
| --- | --- |
| 30 % of GpH7-B3/GpL16-k0 | B1 |
| 56 % of GpH7-B3/GpL16-k0 | B2 |
| 9 % of GpH7-B3/GpL16-k0 | B3 |
| 43 % of GpH7-B3/GpL16-k0 | B4 |
| 92 % of GpH7-B3/GpL16-k0 | B5 |
| 45 % of GpH7-B3/GpL16-k0 | B6 |
| 79 % of GpH7-B3/GpL16-k0 | B7 |
| 95 % of GpH7-B3/GpL16-k0 | B8 |
| 50 % of GpH7-B3/GpL16-k0 | B9 |
| 94 % of GpH7-B3/GpL16-k0 | B10 |
| 89 % of GpH7-B3/GpL16-k0 | B11 |
| 23 % of GpH7-B3/GpL16-k0 | B12 |
| 99 % of GpH7-B3/GpL16-k0 | B13 |
| 92 % of GpH7-B3/GpL16-k0 | B14 |
| 98 % of GpH7-B3/GpL16-k0 | B15 |
| 98 % of GpH7-B3/GpL16-k0 | B16 |

biological target: T2, human FcγRIIa(H); assay: SPR, captured antibody;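 note: antibody captured on a sensor chip, Fcγ receptor flowed over at 25 °C, receptor binding normalized to the captured antibody amount and expressed relative to the reference antibody ×100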

| relative binding activity | Binder |
| --- | --- |
| -2 % of GpH7-B3/GpL16-k0 | B1 |
| 1 % of GpH7-B3/GpL16-k0 | B2 |
| -1 % of GpH7-B3/GpL16-k0 | B3 |
| 0 % of GpH7-B3/GpL16-k0 | B4 |
| 9 % of GpH7-B3/GpL16-k0 | B5 |
| 5 % of GpH7-B3/GpL16-k0 | B6 |
| 1 % of GpH7-B3/GpL16-k0 | B7 |
| 7 % of GpH7-B3/GpL16-k0 | B8 |
| 0 % of GpH7-B3/GpL16-k0 | B9 |
| 4 % of GpH7-B3/GpL16-k0 | B10 |
| 21 % of GpH7-B3/GpL16-k0 | B11 |
| -1 % of GpH7-B3/GpL16-k0 | B12 |
| 67 % of GpH7-B3/GpL16-k0 | B13 |
| 6 % of GpH7-B3/GpL16-k0 | B14 |
| 27 % of GpH7-B3/GpL16-k0 | B15 |
| 42 % of GpH7-B3/GpL16-k0 | B16 |

biological target: T3, human FcγRIIb; assay: SPR, captured antibody;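 note: antibody captured on a sensor chip, Fcγ receptor flowed over at 25 °C, receptor binding normalized to the captured antibody amount and expressed relative to the reference antibody ×100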

| relative binding activity | Binder |
| --- | --- |
| -4 % of GpH7-B3/GpL16-k0 | B1 |
| 0 % of GpH7-B3/GpL16-k0 | B2 |
| -3 % of GpH7-B3/GpL16-k0 | B3 |
| -2 % of GpH7-B3/GpL16-k0 | B4 |
| 39 % of GpH7-B3/GpL16-k0 | B5 |
| 0 % of GpH7-B3/GpL16-k0 | B6 |
| 0 % of GpH7-B3/GpL16-k0 | B7 |
| 22 % of GpH7-B3/GpL16-k0 | B8 |
| -3 % of GpH7-B3/GpL16-k0 | B9 |
| 48 % of GpH7-B3/GpL16-k0 | B10 |
| 13 % of GpH7-B3/GpL16-k0 | B11 |
| -2 % of GpH7-B3/GpL16-k0 | B12 |
| 82 % of GpH7-B3/GpL16-k0 | B13 |
| 72 % of GpH7-B3/GpL16-k0 | B14 |
| 49 % of GpH7-B3/GpL16-k0 | B15 |
| 78 % of GpH7-B3/GpL16-k0 | B16 |
